Legend:
Format in all cases: biochemical
[1] = Glycosylation of 4-HO-MET by GLY enzymes (UDP-glucose), LC-UV/MS; conditions: 0.5 mM 4-OH-MET, 1.25 mM UDP-glucose, 25% (v/v) GLY enzyme, 24 h at 30° C.; estimate from UV peak areas
Procedure: 4-HO-MET was dissolved in 100% (v/v) DMSO to a concentration of 10 mM. The solution was stored at −20° C. prior to use.
FastAP phosphatase (1 U/uL) from ThermoFisher Scientific (catalog no. EF0651).
GLY enzyme suspensions contain 10 mM Tris-HCl at pH7.4, 250 mM imidazole and 50% (v/v) glycerol.
(§1) The assay conditions were: • 100 mM Tris-HCl, pH 7.4 • 5 mM MgCl2 • 1 mM KCl • 1.25 mM UDP-glucose • 0.5 mM 4-OH-MET • 5% (v/v) DMSO • 0.1 U/uL Fast AP phosphatase • 25% (v/v) GLY enzyme
(§2) Incubation was 24 house at 30° C. Reactions were terminated adding 3 volumes of 75% (v/v) ethanol.
(§3) LC separation was performed using an Agligen 1290 Infinity II UHPLC equipped with a Phenomenex Kinetex XB-C18 column (1.7 um, 100 angstroms, 100×2.1 mm) and 4-HO-MET was detected by absorbance at 210 nm and 268 nm with an Agilent 1260 Infinity II DAD.
(§4) 0.1% Formic acid in water (A) and 0.1% Formic acid in acetonitrile (B) were used as the mobile phases for the elution gradient, with a flow rate of 0.4 ml/min. Retention time for 4-HO-MET using this type of instrument under these condition was 2.6 min. The system was coupled to an Ultivo Triple Quadrupole MS. To verify the presence of possible glycoside products, as SIM (Selected Ion Monitoring) method was used on the MS to analyse for the m/z 381 (theoretical mass to chart ratio of 4-HO-MET-glucoside) and m/z 219 (theoretical mass to charge ratio of 4-HO-MET).
As standard, 4-HO-MET solutions at a concentrations of 500, 250, 125, 62.5, and 31.25 uM were prepared from the 10 mM stock and used for caliboration.
A representative example of the chromatograms obtained with a wavelength of 268 nm for the standard solutions resuspended in the reaction buffer, and the corresponding MS-SIM signal, is shown in FIG. 16. The peak corresponding to 4-HO-MET is indicated.
When analyzing the GLY reactions, 30 of them gave an additional peak with retention time 2.2 min (i.e. in the expected region for a 4-HO-MET glucoside) and molecular mass compatible with the expected glucoside product, together with a corresponding decrease in substrate concentration, compared to the no-enzyme controls.
The method was repeated using various GLY enzymes to produce 4-HO-MET glucosides.
(§5) The enzymes giving the additional peak putatively corresponding to the 4-HO-MET-β-D-glucoside are listed below. […] A correct quantification of the product is not possible without a standard for the specific molecule. However, based on the assumption that the ratio area-to-concentration in the UV chromatograms will be similar to 4-HO-MET, estimates of the relative abundance for the additional peak are also given, expressed as percentage of converted 4-HO-MET. GLY enzymes hits are ranked according to their estimated conversion efficiency.

[2] = Glycosylation of 4-OH-EPT by GLY enzymes (UDP-glucose), LC-UV/MS; conditions: conditions of Examples 1 and 2 repeated for 4-OH-EPT; estimate from UV peak areas
Procedure: as §1, §2, §3, §4, §5
The experiments described in Examples 1 and 2 above were repeated for 4-OH-EPT.
Below is the corresponding data for 4-OH-EPT.

[3] = Glycosylation of 4-OH-MiPT by GLY enzymes (UDP-glucose), LC-UV/MS; conditions: conditions of Examples 1 and 2 repeated for 4-OH-MiPT; estimate from UV peak areas
Procedure: as §1, §2, §3, §4, §5
(§6) The experiments described in Examples 1 and 2 above were repeated for 4-OH-MiPT, 4-HO-DMT and 5-HO-DMT
Below is the corresponding data for 4-OH-MiPT.

[4] = Glycosylation of 4-OH-DMT by GLY enzymes (UDP-glucose), LC-UV/MS; conditions: conditions of Examples 1 and 2 repeated for 4-HO-DMT; estimate from UV peak areas
Procedure: as §1, §2, §3, §4, §5, §6
(§7) Below is the corresponding data for 4-OH-DMT and 5-HO-DMT.

[5] = Glycosylation of 5-HO-DMT by GLY enzymes (UDP-glucose), LC-UV/MS; conditions: conditions of Examples 1 and 2 repeated for 5-HO-DMT
Procedure: as §1, §2, §3, §4, §5, §6, §7

B1: GLY87: glycosyltransferase (UGT), SEQ ID NO: 10 (protein)
chain: MGKQEDAELVIIPFPFSGHILATIELAKRLISQDNPRIHTITILYWGLPFIPQADTIAFLRSLVKNEPRIRLVTLPEVQDPPPMELFVEFAESYILEYVKKMVPIIREALSTLLSSRDESGSVRVAGLVLDFFCVPMIDVGNEFNLPSYIFLTCSAGFLGMMKYLPERHREIKSEFNRSFNEELNLIPGYVNSVPTKVLPSGLFMKETYEPWVELAERFPEAKGILVNSYTALEPNGFKYFDRCPDNYPTIYPIGPILNLENKKDDAKTDEIMRWLNEQPESSVVFLCFGSMGSFNEKQVKEIAVAIERSGHRFLWSLRRPTPKEKIEFPKEYENLEEVLPEGFLKRTSSIGKVIGWAPQMAVLSHPSVGGFVSHCGWNSTLESMWCGVPMAAWPLYAEQTLNAFLLVVELGLAAEIRMDYRTDTKAGYDGGMEVTVEEIEDGIRKLMSDGEIRNKVKDVKEKSRAAVVEGGSSYASIGKFIEHVSNVTI
- 4-OH-MET GLY % (percentage of converted 4-HO-MET) [1]: 95.2%
- 4-OH-EPT GLY % (percentage of converted 4-OH-EPT) [2]: 68.9%
- 4-OH-MiPT GLY % (percentage of converted 4-OH-MiPT) [3]: 76.4%
- 4-OH-DMT GLY % [4]: 85.3%
- 5-OH-DMT GLY % [5]: 3%

From US20260060994A1, “GLYCOSYLATED COMPOSITIONS AND METHODS OF USE” (Cy Biopharma AG, priority 2023, published 2026)
